Measured values published in patent US20180172692.

Tests used:
β10* = target: T1, β10*
T1 chain: VSGWRLFKKIS

β9 = target: T2, β9
T2 chain: GSMLFRVTINS

B1: Δ11S (protein)
chain: MVFTLEDFVGDWEQTAAYNLDQVLEQGGVSSLLQNLAVSVTPIQRIVRSGENALKIDIHVIIPYEGLSADQMAQIEEVFKVVYPVDDHHFKVILPYGTLVIDGVTPNMLNYFGRPYEGIAVFDGKKITVTGTLWNGNKIIDERLITPD
With B1 the “luminescence (furimazine substrate), fragments each at 1 µM” value (β10*) was “the mixture of all three components is the only combination that produced significant luminescence” and the “luminescence (furimazine substrate), fragments each at 1 µM” value (β9) was “the mixture of all three components is the only combination that produced significant luminescence”.
